{"source": "patent US20210221894A1", "about": "(DRAGONFLY THERAPEUTICS, published 2021)", "binders": {"B1": {"name": "murine anti-DLL3 antibody clone 5E7 (antibody, V domains shown)", "VH": "EVQLQQSGAELVRPGASVKLSCTASGFNIKDDYIHWVKQWPEQGLEWIGWIDSENGDTEYASKFQGKATMTADTSSNTAYLQLSGLTSEDTAVYYCTTSSYYSYDLFVYWGQGTLVTVSA", "VL": "DVLMTQTPLTLSVPIGQPASISCKSSQSLLHSNGKTYLNWLLQRPGQSPKLLIYLVSKLESGVPDRFSGSGSGTDFTLKISRVEAEDLGVYYCLQTTHLYTFGGGTKLEIK", "notes": "Murine antibody produced from a mouse hybridoma, captured on anti-mouse Fc in SPR; also called m5E7; murine 5E7"}}, "key": {"[1]": {"target": "T1, extracellular domain (ECD) of human DLL3 (AdipoGen Life Sciences) (human, UniProt Q9NYJ7 27-492)", "T1 construct": "Bought and further purified by size exclusion chromatography; also called hDLL3 ECD; DLL3 ECD", "T1 sequence": "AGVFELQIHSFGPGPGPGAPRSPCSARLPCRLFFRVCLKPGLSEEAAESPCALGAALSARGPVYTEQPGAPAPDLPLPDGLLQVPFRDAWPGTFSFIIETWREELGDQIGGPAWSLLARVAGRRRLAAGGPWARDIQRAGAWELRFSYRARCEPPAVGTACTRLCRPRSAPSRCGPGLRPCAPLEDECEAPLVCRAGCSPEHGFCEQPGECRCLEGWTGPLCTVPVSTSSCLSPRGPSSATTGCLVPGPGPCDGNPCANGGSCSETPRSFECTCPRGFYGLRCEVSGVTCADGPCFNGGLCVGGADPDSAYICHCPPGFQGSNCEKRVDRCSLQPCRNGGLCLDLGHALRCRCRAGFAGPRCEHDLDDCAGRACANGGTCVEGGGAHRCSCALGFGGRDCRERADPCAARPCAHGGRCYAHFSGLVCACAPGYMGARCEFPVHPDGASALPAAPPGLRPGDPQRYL", "test": "SPR (Biacore 8K), 37 C, antibody captured on anti-mouse Fc; same values as in Table 36; 37 C; hDLL3 ECD construct", "excerpt": "(§1) The binding kinetics of different anti-DLL3 antibodies to recombinant proteins of different domains of human DLL3 were studied by surface plasmon resonance (SPR) using a Biacore™ 8K instrument. These anti-DLL3 antibodies were produced from mouse hybridomas, and each included a heavy chain variable region and light chain variable region described herein. Briefly, antibodies recognizing human IgG Fc and antibodies recognizing mouse IgG Fc were immobilized on different channels of a Biacore™ 8K chip to allow simultaneous analysis of human and murine anti-DLL3 antibodies. Murine anti-DLL3 antibodies were captured on the anti-mouse Fc channel of the Biacore chip. The human anti-DLL3 antibody from Stemcentrx (San Francisco, Calif.) was used as a control and was captured onto anti-human Fc channel of the Biacore™ chip. Different concentrations of DLL3 ECD, DLL3 N-terminal domain, EGF2-6, EGF3-6, EGF4-6, or EGF5-6 domains of DLL3 were injected. Experiments were performed at 37° C. Biacore™ 8K evaluation software was used for all data analysis. To obtain kinetic rate constants double-referenced data were fit to a 1:1 interaction model using Biacore™ 8K Evaluation software (GE Healthcare, Marlborough, Mass.). The equilibrium binding constant KD was determined by the ratio of binding rate constants kd/kₐ.\n(§2) Table 36 lists the calculated binding kinetics (KD). […]"}, "[2]": {"target": "T2, recombinant His-tagged EGF2-6 domains of human DLL3 (human, UniProt Q9NYJ7 274-492, limits assumed)", "T2 sequence": "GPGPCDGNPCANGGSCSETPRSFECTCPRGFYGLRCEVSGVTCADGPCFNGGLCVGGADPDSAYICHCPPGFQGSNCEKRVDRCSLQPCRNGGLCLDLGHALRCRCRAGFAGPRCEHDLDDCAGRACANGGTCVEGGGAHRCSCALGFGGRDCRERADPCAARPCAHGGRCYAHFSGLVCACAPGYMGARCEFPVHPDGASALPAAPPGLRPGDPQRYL", "test": "SPR (Biacore 8K), 37 C, antibody captured on anti-mouse Fc, DLL3 domain construct injected, 1:1 fit", "excerpt": "as §1\n(§3) The binding epitope on DLL3 by the anti-DLL3 antibody which included a heavy chain variable region and light chain variable region of clone 5E7 (see Table 2) was identified by SPR analysis at 37° C."}, "[3]": {"target": "T3, recombinant His-tagged EGF3-6 domains of human DLL3 (human, UniProt Q9NYJ7 312-492, limits assumed)", "T3 sequence": "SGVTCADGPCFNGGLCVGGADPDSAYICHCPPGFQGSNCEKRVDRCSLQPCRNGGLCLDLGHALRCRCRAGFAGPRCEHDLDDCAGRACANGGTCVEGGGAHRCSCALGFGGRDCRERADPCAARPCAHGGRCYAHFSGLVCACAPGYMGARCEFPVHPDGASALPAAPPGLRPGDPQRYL", "test": "SPR (Biacore 8K), 37 C, antibody captured on anti-mouse Fc, DLL3 domain construct injected, 1:1 fit", "excerpt": "as §1, §3"}, "[4]": {"target": "T4, recombinant His-tagged EGF4-6 domains of human DLL3 (human, UniProt Q9NYJ7 353-492, limits assumed)", "T4 sequence": "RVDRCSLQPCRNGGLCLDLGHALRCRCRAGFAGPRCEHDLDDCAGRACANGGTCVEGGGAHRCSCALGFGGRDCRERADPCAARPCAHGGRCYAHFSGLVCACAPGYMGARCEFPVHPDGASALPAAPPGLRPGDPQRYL", "test": "SPR (Biacore 8K), 37 C, antibody captured on anti-mouse Fc, DLL3 domain construct injected, 1:1 fit", "excerpt": "as §1, §3"}, "[5]": {"target": "T5, recombinant His-tagged EGF5-6 domains of human DLL3 (human, UniProt Q9NYJ7 391-492, limits assumed)", "T5 sequence": "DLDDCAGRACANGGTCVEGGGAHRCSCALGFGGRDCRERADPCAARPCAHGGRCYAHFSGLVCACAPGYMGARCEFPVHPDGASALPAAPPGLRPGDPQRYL", "test": "SPR (Biacore 8K), 37 C, antibody captured on anti-mouse Fc", "excerpt": "as §1, with “kd/kₐ. […]” for “kd/kₐ.”"}, "[6]": {"target": "T6, recombinant His-tagged N-terminal domain of human DLL3 (human, UniProt Q9NYJ7 27-175, limits assumed)", "T6 construct": "also called DLL3 N-terminal domain", "T6 sequence": "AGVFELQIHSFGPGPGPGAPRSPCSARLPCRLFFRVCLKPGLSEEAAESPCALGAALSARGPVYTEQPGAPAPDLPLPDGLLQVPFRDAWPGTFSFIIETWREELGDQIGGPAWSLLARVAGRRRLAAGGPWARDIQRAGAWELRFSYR", "test": "SPR (Biacore 8K), 37 C, antibody captured on anti-mouse Fc", "excerpt": "as §1, with “kd/kₐ. […]” for “kd/kₐ.”"}, "[7]": {"target": "T1, extracellular domain (ECD) of human …", "test": "SPR (Biacore 8K), 37 C, antibody captured on anti-mouse Fc; same values as in Table 36", "excerpt": "as §1, §2"}}, "data": [{"binder": "B1", "values": [{"measurement": "kon", "setting": "[1]", "value": 319000, "unit": "M⁻¹ s⁻¹"}, {"measurement": "Kd", "setting": "[2]", "value": 0.669, "unit": "nM"}, {"measurement": "koff", "setting": "[2]", "value": 0.000382, "unit": "s⁻¹"}, {"measurement": "kon", "setting": "[2]", "value": 570000, "unit": "M⁻¹ s⁻¹"}, {"measurement": "Kd", "setting": "[3]", "value": 0.184, "unit": "nM"}, {"measurement": "koff", "setting": "[3]", "value": 0.000264, "unit": "s⁻¹"}, {"measurement": "kon", "setting": "[3]", "value": "1.45e+06", "unit": "M⁻¹ s⁻¹"}, {"measurement": "Kd", "setting": "[4]", "value": 1.12, "unit": "nM"}, {"measurement": "koff", "setting": "[4]", "value": 0.00061, "unit": "s⁻¹"}, {"measurement": "kon", "setting": "[4]", "value": 546000, "unit": "M⁻¹ s⁻¹"}, {"measurement": "binding result", "setting": "[5]", "value": "no binding"}, {"measurement": "binding result", "setting": "[6]", "value": "no binding"}, {"measurement": "Kd", "setting": "[7]", "value": 0.203, "unit": "nM"}, {"measurement": "koff", "setting": "[7]", "value": "6.47e-05", "unit": "s⁻¹"}]}]}
